Test results: US20140087995A1 (published 2014)
Numbered stars: 1 amine (or outer) side, 2 acyl side, 3 side chain; on linkers, the order of the positions; unused ones are H or OH. Bridge positions count the residues as written; N and C are the ends. Side chains are listed from the residue outwards. Ends that are not written are not given here. * marks the point of attachment. C20 diacid = O=C(O)CCCCCCCCCCCCCCCCCCC(=O)*; γGlu = O=C(O)[C@H](CCC(=O)[*:2])N[*:1]; AEEA = NCCOCCOCC(=O)O

T1: human amylin receptor (amylin 3(a) receptor: human calcitonin receptor co-expressed with RAMP-3) (human, UniProt P30988 25-474; O60896 24-148, limits assumed)
T1 sequence (looked up) 1: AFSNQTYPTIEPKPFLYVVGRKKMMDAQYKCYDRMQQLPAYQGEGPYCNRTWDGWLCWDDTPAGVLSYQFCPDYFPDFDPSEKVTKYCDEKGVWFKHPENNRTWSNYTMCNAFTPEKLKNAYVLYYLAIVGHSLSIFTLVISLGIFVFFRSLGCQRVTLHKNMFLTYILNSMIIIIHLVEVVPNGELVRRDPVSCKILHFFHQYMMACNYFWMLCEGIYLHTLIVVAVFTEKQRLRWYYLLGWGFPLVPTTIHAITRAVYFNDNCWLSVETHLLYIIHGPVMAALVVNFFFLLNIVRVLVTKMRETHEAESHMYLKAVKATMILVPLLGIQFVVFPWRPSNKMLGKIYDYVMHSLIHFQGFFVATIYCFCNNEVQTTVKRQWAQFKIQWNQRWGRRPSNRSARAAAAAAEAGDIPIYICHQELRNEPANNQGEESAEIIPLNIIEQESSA
T1 sequence (looked up) 2: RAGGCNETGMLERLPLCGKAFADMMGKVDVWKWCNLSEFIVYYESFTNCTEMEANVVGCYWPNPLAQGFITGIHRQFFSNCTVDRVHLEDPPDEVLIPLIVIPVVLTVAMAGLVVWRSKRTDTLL

T2: human calcitonin receptor (human, UniProt P30988 25-474)
T2 sequence (looked up): T1 sequence (looked up) 1

B1: N^ε1-[2-[2-[2-(19-carboxynonadecanoylamino)ethoxy]ethoxy]acetyl]-[Arg17,Pro21,Pro27]-h-amylin (peptide)
peptide: K([AEEA-C20 diacid])CNTATCATQRLANFLRHSSPNFGAIPSSTNVGSNTY-NH2
modifications: disulfide 2-7; N-terminus assumed
SMILES: CC[C@H](C)[C@H](NC(=O)[C@H](C)NC(=O)CNC(=O)[C@H](Cc1ccccc1)NC(=O)[C@H](CC(N)=O)NC(=O)[C@@H]1CCCN1C(=O)[C@H](CO)NC(=O)[C@H](CO)NC(=O)[C@H](Cc1c[nH]cn1)NC(=O)[C@H](CCCNC(=N)N)NC(=O)[C@H](CC(C)C)NC(=O)[C@H](Cc1ccccc1)NC(=O)[C@H](CC(N)=O)NC(=O)[C@H](C)NC(=O)[C@H](CC(C)C)NC(=O)[C@H](CCCNC(=N)N)NC(=O)[C@H](CCC(N)=O)NC(=O)[C@@H](NC(=O)[C@H](C)NC(=O)[C@@H]1CSSC[C@H](NC(=O)[C@@H](N)CCCCNC(=O)COCCOCCNC(=O)CCCCCCCCCCCCCCCCCCC(=O)O)C(=O)N[C@@H](CC(N)=O)C(=O)N[C@@H]([C@@H](C)O)C(=O)N[C@@H](C)C(=O)N[C@@H]([C@@H](C)O)C(=O)N1)[C@@H](C)O)C(=O)N1CCC[C@H]1C(=O)N[C@@H](CO)C(=O)N[C@@H](CO)C(=O)N[C@H](C(=O)N[C@@H](CC(N)=O)C(=O)N[C@H](C(=O)NCC(=O)N[C@@H](CO)C(=O)N[C@@H](CC(N)=O)C(=O)N[C@H](C(=O)N[C@@H](Cc1ccc(O)cc1)C(N)=O)[C@@H](C)O)C(C)C)[C@@H](C)O
notes: also called compound 43
B2: N^ε-[(4S)-4-carboxy-4-(19-carboxynonadecanoylamino)butanoyl]Lys[Arg1,Arg17,Pro21,Pro27,His35]-h-amylin (peptide)
peptide: K([γGlu-C20 diacid])RCNTATCATQRLANFLRHSSPNFGAIPSSTNVGSHTY-NH2
modifications: disulfide 3-8; N-terminus assumed
SMILES: CC[C@H](C)[C@H](NC(=O)[C@H](C)NC(=O)CNC(=O)[C@H](Cc1ccccc1)NC(=O)[C@H](CC(N)=O)NC(=O)[C@@H]1CCCN1C(=O)[C@H](CO)NC(=O)[C@H](CO)NC(=O)[C@H](Cc1c[nH]cn1)NC(=O)[C@H](CCCNC(=N)N)NC(=O)[C@H](CC(C)C)NC(=O)[C@H](Cc1ccccc1)NC(=O)[C@H](CC(N)=O)NC(=O)[C@H](C)NC(=O)[C@H](CC(C)C)NC(=O)[C@H](CCCNC(=N)N)NC(=O)[C@H](CCC(N)=O)NC(=O)[C@@H](NC(=O)[C@H](C)NC(=O)[C@@H]1CSSC[C@H](NC(=O)[C@H](CCCNC(=N)N)NC(=O)[C@@H](N)CCCCNC(=O)CC[C@H](NC(=O)CCCCCCCCCCCCCCCCCCC(=O)O)C(=O)O)C(=O)N[C@@H](CC(N)=O)C(=O)N[C@@H]([C@@H](C)O)C(=O)N[C@@H](C)C(=O)N[C@@H]([C@@H](C)O)C(=O)N1)[C@@H](C)O)C(=O)N1CCC[C@H]1C(=O)N[C@@H](CO)C(=O)N[C@@H](CO)C(=O)N[C@H](C(=O)N[C@@H](CC(N)=O)C(=O)N[C@H](C(=O)NCC(=O)N[C@@H](CO)C(=O)N[C@@H](Cc1c[nH]cn1)C(=O)N[C@H](C(=O)N[C@@H](Cc1ccc(O)cc1)C(N)=O)[C@@H](C)O)C(C)C)[C@@H](C)O
notes: 38 residues: N-terminal extension by Lys (-1K); also called compound 44
B3: N^-1-[(4S)-4-carboxy-4-(19-carboxynonadecanoylamino)butanoyl]-Gly[Arg1,Arg17,Pro21,Pro27]-h-amylin (peptide)
peptide: {C20 diacid-γGlu}-GRCNTATCATQRLANFLRHSSPNFGAIPSSTNVGSNTY-NH2
modifications: disulfide 3-8
SMILES: CC[C@H](C)[C@H](NC(=O)[C@H](C)NC(=O)CNC(=O)[C@H](Cc1ccccc1)NC(=O)[C@H](CC(N)=O)NC(=O)[C@@H]1CCCN1C(=O)[C@H](CO)NC(=O)[C@H](CO)NC(=O)[C@H](Cc1c[nH]cn1)NC(=O)[C@H](CCCNC(=N)N)NC(=O)[C@H](CC(C)C)NC(=O)[C@H](Cc1ccccc1)NC(=O)[C@H](CC(N)=O)NC(=O)[C@H](C)NC(=O)[C@H](CC(C)C)NC(=O)[C@H](CCCNC(=N)N)NC(=O)[C@H](CCC(N)=O)NC(=O)[C@@H](NC(=O)[C@H](C)NC(=O)[C@@H]1CSSC[C@H](NC(=O)[C@H](CCCNC(=N)N)NC(=O)CNC(=O)CC[C@H](NC(=O)CCCCCCCCCCCCCCCCCCC(=O)O)C(=O)O)C(=O)N[C@@H](CC(N)=O)C(=O)N[C@@H]([C@@H](C)O)C(=O)N[C@@H](C)C(=O)N[C@@H]([C@@H](C)O)C(=O)N1)[C@@H](C)O)C(=O)N1CCC[C@H]1C(=O)N[C@@H](CO)C(=O)N[C@@H](CO)C(=O)N[C@H](C(=O)N[C@@H](CC(N)=O)C(=O)N[C@H](C(=O)NCC(=O)N[C@@H](CO)C(=O)N[C@@H](CC(N)=O)C(=O)N[C@H](C(=O)N[C@@H](Cc1ccc(O)cc1)C(N)=O)[C@@H](C)O)C(C)C)[C@@H](C)O
notes: 38 residues: N-terminal extension by Gly (-1G); also called compound 46
B4: N^-1-[(4S)-4-carboxy-4-(19-carboxynonadecanoylamino)butanoyl]-Gly[Arg1,Arg17,Pro21,Pro27,His35]-h-amylin (peptide)
peptide: {C20 diacid-γGlu}-GRCNTATCATQRLANFLRHSSPNFGAIPSSTNVGSHTY-NH2
modifications: disulfide 3-8
SMILES: CC[C@H](C)[C@H](NC(=O)[C@H](C)NC(=O)CNC(=O)[C@H](Cc1ccccc1)NC(=O)[C@H](CC(N)=O)NC(=O)[C@@H]1CCCN1C(=O)[C@H](CO)NC(=O)[C@H](CO)NC(=O)[C@H](Cc1c[nH]cn1)NC(=O)[C@H](CCCNC(=N)N)NC(=O)[C@H](CC(C)C)NC(=O)[C@H](Cc1ccccc1)NC(=O)[C@H](CC(N)=O)NC(=O)[C@H](C)NC(=O)[C@H](CC(C)C)NC(=O)[C@H](CCCNC(=N)N)NC(=O)[C@H](CCC(N)=O)NC(=O)[C@@H](NC(=O)[C@H](C)NC(=O)[C@@H]1CSSC[C@H](NC(=O)[C@H](CCCNC(=N)N)NC(=O)CNC(=O)CC[C@H](NC(=O)CCCCCCCCCCCCCCCCCCC(=O)O)C(=O)O)C(=O)N[C@@H](CC(N)=O)C(=O)N[C@@H]([C@@H](C)O)C(=O)N[C@@H](C)C(=O)N[C@@H]([C@@H](C)O)C(=O)N1)[C@@H](C)O)C(=O)N1CCC[C@H]1C(=O)N[C@@H](CO)C(=O)N[C@@H](CO)C(=O)N[C@H](C(=O)N[C@@H](CC(N)=O)C(=O)N[C@H](C(=O)NCC(=O)N[C@@H](CO)C(=O)N[C@@H](Cc1c[nH]cn1)C(=O)N[C@H](C(=O)N[C@@H](Cc1ccc(O)cc1)C(N)=O)[C@@H](C)O)C(C)C)[C@@H](C)O
notes: 38 residues: N-terminal extension by Gly (-1G); also called compound 47
B5: N^ε-[2-[2-[2-[[(4S)-4-carboxy-4-(19-carboxynonadecanoylamino)butanoyl]amino]ethoxy]ethoxy]acetyl]Lys[Arg1,Arg17,Pro21,Pro27,His35]-h-amylin (peptide)
peptide: K([AEEA-γGlu-C20 diacid])RCNTATCATQRLANFLRHSSPNFGAIPSSTNVGSHTY-NH2
modifications: disulfide 3-8; N-terminus assumed
SMILES: CC[C@H](C)[C@H](NC(=O)[C@H](C)NC(=O)CNC(=O)[C@H](Cc1ccccc1)NC(=O)[C@H](CC(N)=O)NC(=O)[C@@H]1CCCN1C(=O)[C@H](CO)NC(=O)[C@H](CO)NC(=O)[C@H](Cc1c[nH]cn1)NC(=O)[C@H](CCCNC(=N)N)NC(=O)[C@H](CC(C)C)NC(=O)[C@H](Cc1ccccc1)NC(=O)[C@H](CC(N)=O)NC(=O)[C@H](C)NC(=O)[C@H](CC(C)C)NC(=O)[C@H](CCCNC(=N)N)NC(=O)[C@H](CCC(N)=O)NC(=O)[C@@H](NC(=O)[C@H](C)NC(=O)[C@@H]1CSSC[C@H](NC(=O)[C@H](CCCNC(=N)N)NC(=O)[C@@H](N)CCCCNC(=O)COCCOCCNC(=O)CC[C@H](NC(=O)CCCCCCCCCCCCCCCCCCC(=O)O)C(=O)O)C(=O)N[C@@H](CC(N)=O)C(=O)N[C@@H]([C@@H](C)O)C(=O)N[C@@H](C)C(=O)N[C@@H]([C@@H](C)O)C(=O)N1)[C@@H](C)O)C(=O)N1CCC[C@H]1C(=O)N[C@@H](CO)C(=O)N[C@@H](CO)C(=O)N[C@H](C(=O)N[C@@H](CC(N)=O)C(=O)N[C@H](C(=O)NCC(=O)N[C@@H](CO)C(=O)N[C@@H](Cc1c[nH]cn1)C(=O)N[C@H](C(=O)N[C@@H](Cc1ccc(O)cc1)C(N)=O)[C@@H](C)O)C(C)C)[C@@H](C)O
notes: 38 residues: N-terminal extension by Lys (-1K); also called compound 45
B6: N^ε21-[(4S)-4-carboxy-4-[[(4S)-4-carboxy-4-(19-carboxynonadecanoylamino)butanoyl]amino]butanoyl]-[Asp14,Arg17,Lys21,Pro27,Asp35]-h-amylin (peptide)
peptide: KCNTATCATQRLADFLRHSSK([γGlu-γGlu-C20 diacid])NFGAIPSSTNVGSDTY-NH2
modifications: disulfide 2-7; N-terminus assumed
SMILES: CC[C@H](C)[C@H](NC(=O)[C@H](C)NC(=O)CNC(=O)[C@H](Cc1ccccc1)NC(=O)[C@H](CC(N)=O)NC(=O)[C@H](CCCCNC(=O)CC[C@H](NC(=O)CC[C@H](NC(=O)CCCCCCCCCCCCCCCCCCC(=O)O)C(=O)O)C(=O)O)NC(=O)[C@H](CO)NC(=O)[C@H](CO)NC(=O)[C@H](Cc1c[nH]cn1)NC(=O)[C@H](CCCNC(=N)N)NC(=O)[C@H](CC(C)C)NC(=O)[C@H](Cc1ccccc1)NC(=O)[C@H](CC(=O)O)NC(=O)[C@H](C)NC(=O)[C@H](CC(C)C)NC(=O)[C@H](CCCNC(=N)N)NC(=O)[C@H](CCC(N)=O)NC(=O)[C@@H](NC(=O)[C@H](C)NC(=O)[C@@H]1CSSC[C@H](NC(=O)[C@@H](N)CCCCN)C(=O)N[C@@H](CC(N)=O)C(=O)N[C@@H]([C@@H](C)O)C(=O)N[C@@H](C)C(=O)N[C@@H]([C@@H](C)O)C(=O)N1)[C@@H](C)O)C(=O)N1CCC[C@H]1C(=O)N[C@@H](CO)C(=O)N[C@@H](CO)C(=O)N[C@H](C(=O)N[C@@H](CC(N)=O)C(=O)N[C@H](C(=O)NCC(=O)N[C@@H](CO)C(=O)N[C@@H](CC(=O)O)C(=O)N[C@H](C(=O)N[C@@H](Cc1ccc(O)cc1)C(N)=O)[C@@H](C)O)C(C)C)[C@@H](C)O
notes: also called compound 59

molecular target: T1, human amylin receptor (amylin 3(a) …); assay: cell-based or functional assay

Row | hAmylin-R funct. EC50 [nM] | Binder
1 | 0.141 | B1
2 | 0.198 | B2
3 | 0.088 | B3
4 | 0.222 | B4
5 | 0.594 | B5
6 | 0.389 | B6

molecular target: T2, human calcitonin receptor; assay: cell-based or functional assay

Row | Ratio hCT/hAmylin funct. (hCTR EC50 against hAmylin-R EC50) | hCTR funct. EC50 [nM] | Binder
7 | 6.5 | 0.92 | B1
8 | 24 | 4.75 | B2
9 | 10.2 | 0.899 | B3
10 | 6 | 1.32 | B4
11 | 17 | 10.1 | B5
12 | 5 | 1.95 | B6
